The source of these data is patent US20240029824A1 (University of Washington, published 2024).

One test addresses T1, DHT07 chain C.
T1 chain: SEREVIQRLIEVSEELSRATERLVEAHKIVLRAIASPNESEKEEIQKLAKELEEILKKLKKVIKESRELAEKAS
Briefly: co-expression, IMAC, SEC, native MS; chains of one ABC heterotrimer. The text has this: (§1) Genes encoding 85 heterotrimers in a tricistronic expression vector were obtained, and the proteins were expressed in E. coli and purified via IMAC with only one chain having the 6×His-tag. Nine of the designs (FIG. 3a) had monodisperse SEC peaks (FIG. 3b), were almost exclusively ABC by nMS, and had good SAXS fits to the design models (Table 7). […] Eight of the designs are parallel heterotrimers, while DHTO9 is an antiparallel heterotrimer. […] For 3 other designs, only the ABC heterotrimer was determined to form by nMS (when the respective SEC fraction was analyzed) but the heterotrimer SEC peak was preceded by soluble aggregate that would make building with these constructs difficult downstream. We explored the dependence of cooperativity on connectivity between the three chains by changing the positions of the loops across different helices in DHT03, while keeping the rest of the interface intact. […] The ability to sustain alternate loop closures increases the number of heteromeric building blocks available for future nanostructure assembly applications and may enable rigid fusion of functional domains to the different termini available.
(§2) Samples were analyzed by online buffer exchange native mass spectrometry (nMS) to evaluate sample purity and accurately determine oligomeric states⁴². Multiple instruments were used as the analyses were carried out over the duration of the protein design process. The mass spectrometers used for detection were a Q Exactive™ UHMR modified with a surface-induced dissociation device and an Exactive™ Plus EMR modified with a selection quadrupole and a surface-induced dissociation device (Thermo Fisher Scientific)⁴³. The liquid chromatography systems used for the buffer exchange include a Vanquish™ Duo UHPLC and a Dionex™ Ultimate 3000 HPLC (Thermo Fisher Scientific). A heated electrospray ionization source (HESI-II, Thermo Fisher Scientific) with a spray voltage of ˜4 kV was used for ionization.

The target in another test is T2, DHT06 chain C.
T2 chain: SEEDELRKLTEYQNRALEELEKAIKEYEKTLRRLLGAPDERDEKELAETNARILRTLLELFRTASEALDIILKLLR
The test is described as above.
Excerpt: as §1, §2

Test [1] addresses T3, DHT03 chain C (SEQ ID NO: 65).
T3 chain: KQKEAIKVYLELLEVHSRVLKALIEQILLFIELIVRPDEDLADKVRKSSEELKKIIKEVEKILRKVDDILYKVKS
Briefly: co-expression, SEC, native MS, SAXS; chains of one ABC heterotrimer.

A further test addresses T4, DHT10 chain C.
T4 chain: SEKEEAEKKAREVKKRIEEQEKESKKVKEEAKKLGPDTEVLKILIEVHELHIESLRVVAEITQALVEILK
Briefly: co-expression, IMAC, SEC, native MS; chains of one ABC heterotrimer.
Excerpt: as §1, §2

The next test has as its target T5, DHT02 chain C.
T5 chain: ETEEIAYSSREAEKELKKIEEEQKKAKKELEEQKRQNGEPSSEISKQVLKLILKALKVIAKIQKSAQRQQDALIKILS
Described as above.
Excerpt: as §1, §2

The next test has as its target T6, DHT08 chain C.
T6 chain: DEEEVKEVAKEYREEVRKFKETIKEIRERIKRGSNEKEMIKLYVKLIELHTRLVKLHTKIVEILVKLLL
Described as above.
Excerpt: as §1, §2

A further test addresses T7, DHT09 chain C.
T7 chain: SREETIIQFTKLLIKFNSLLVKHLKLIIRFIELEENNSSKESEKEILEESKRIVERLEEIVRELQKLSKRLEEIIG
Described as above.
Excerpt: as §1, §2

The target in test [2] is T8, DHT03_variant_ABC-2 chain C.
T8 chain: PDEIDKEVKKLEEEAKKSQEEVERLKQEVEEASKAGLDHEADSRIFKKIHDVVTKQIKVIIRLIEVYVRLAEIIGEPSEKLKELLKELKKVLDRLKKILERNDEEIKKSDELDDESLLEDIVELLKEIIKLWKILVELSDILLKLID
Briefly: native MS; loop-connectivity variant of DHT03, chains of one ABC heterotrimer.

The target in a further test is T9, DHT04 chain C.
T9 chain: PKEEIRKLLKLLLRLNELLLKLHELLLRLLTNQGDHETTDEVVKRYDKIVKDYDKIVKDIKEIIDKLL
Description: co-expression, IMAC, SEC, native MS; chains of one ABC heterotrimer.
Excerpt: as §1, §2

For a further test, the target named is T10, DHT01 chain C.
T10 chain: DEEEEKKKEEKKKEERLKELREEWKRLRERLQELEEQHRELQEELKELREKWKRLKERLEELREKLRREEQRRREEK
Description: co-expression, IMAC and Strep-Tactin pull-down, SEC, native MS; chains of one ABC heterotrimer.
Excerpt: We obtained genes encoding 20 coiled coil designed heterotrimers (DHTs) in a tricistronic E. coli expression vector with one chain having a 6×His-tag and a second chain having Strep-tag II, expressed the proteins, and purified by immobilized metal affinity chromatography (IMAC) and Strep-Tactin pull-down. All designs were soluble and for 6 designs, all three components were observed by liquid chromatography-mass spectrometry (LC-MS) after both pull-down approaches. Of these, 5 eluted as monodisperse peaks by SEC, but only 1 design (DHT01) was an exclusive ABC heterotrimer by native mass spectrometry (nMS) and had good agreement with the design model via small angle X-ray scattering (SAXS) (FIG. 2d, Table 7).
as §2, with “ionization. Protein samples stored in Tris buffer were injected (0.1-2 ug) onto the LC system and exchanged at a flow rate of 100-200 uL*min⁻¹ into 200 mM ammonium acetate (mobile phase) prior to ionization. Buffer exchange columns used include self-packed columns with P6 polyacrylamide gel (Bio-Rad Laboratories) and prototype buffer exchange columns provided by Thermo Fisher Scientific (Sunnyvale, CA). Instrument parameters were optimized to allow for ion transmission while minimizing unintentional ion activation. […]” for “ionization.”

The target of a further test is T11, DHT01-4arm-01 chain C.
T11 construct: also called DHT01-4arm-02 chain C; C2-DHT01-01 chain B
T11 chain: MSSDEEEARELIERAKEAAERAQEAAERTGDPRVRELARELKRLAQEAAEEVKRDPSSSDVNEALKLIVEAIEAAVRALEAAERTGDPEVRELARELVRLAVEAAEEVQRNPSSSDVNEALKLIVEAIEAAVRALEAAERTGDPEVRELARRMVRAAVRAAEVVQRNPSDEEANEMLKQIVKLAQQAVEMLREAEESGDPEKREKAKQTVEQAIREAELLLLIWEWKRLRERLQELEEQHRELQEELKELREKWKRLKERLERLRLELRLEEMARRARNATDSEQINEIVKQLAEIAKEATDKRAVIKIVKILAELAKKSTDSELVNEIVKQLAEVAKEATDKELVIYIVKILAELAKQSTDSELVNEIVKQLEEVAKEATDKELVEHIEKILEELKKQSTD
Briefly: co-expression, pull-downs, SEC, native MS, SAXS; chains of one ABC heterotrimer.

B1: DHT07 chain B (designed binder)
chain: DREEKLERETEKLEKKIRESQRRMEELRKQIETDPDEKELLEILIRSLRLLEEQLEALRKLNHAAQQLLG
As to B1, in the test with DHT07 chain C, the binding result is recorded as “binds”.

B2: DHT06 chain B (designed binder)
chain: SEEDELEKAIREQKKALERLKEAIERYEETLKRGKNEKELAKTNAEILKTLLELFKSQLELAEIILKLLR
Consider B2, for which, in the test with DHT06 chain C, the binding result is “binds”.

B3: DHT03_2arm_A21/Bt18/C chain B (designed binder)
chain: TEEKIAKEISRIAEESKKRIEELARKADNKTTETEVDKAIEKIAKLAREAIKRIEDLAKNLASEEFMARAISAIAELAKKAIEAIYRLADNHTTDTFMAKAIEAIAELAKEAIKAIADLAKNHTTEEFMARAISAIAELAKKAIEAIYRLADNHTTDTFMAKAIEAIAELAKEAIKAIADLAKNHTTEEFMAKAISAIMELAVKAILAIARLASNHTSQTYREKAREAVEKIARTAEKAIEDLAKNITTEEYKERAKKARAIVRVMAEVAKLLIEAVESQEEVERLKQEVEKASKAGLDHEGDSRIFKKIHDVVTKQIKVIIRLIAVYAELVAIIG
Take B3: the binding result in [1] is on record as “binds”.

B4: DHT10 chain B (designed binder)
chain: SELEEEIKRIRKEIEESRRRIEELRKKAQKAREGSSEKEFLQIYIELQKVLIEQIKIYIELLQIIFELQS
As for B4, the binding result with DHT10 chain C is listed as “binds”.

B5: DHT02 chain B (designed binder)
chain: PQLDKFRDESRYLDKASKEVEDEIKKIEKIIRDADEKSLPEEALQDVVKSVVKVYLKSVKETIKSIELVIELIKVIM
B5: in the test with DHT02 chain C, the binding result is given as “binds”.

B6: DHT08 chain B (designed binder)
chain: DKEEKIKEILRRVQELRREHEELEERLKELKKELEKSPSQEELKKFIKLAQELIKLTLELIELSLRLIELLLG
B6: in the test with DHT08 chain C, the binding result was “binds”.

B7: DHT09 chain B (designed binder)
chain: SKEEILKLHLEVAEIHIETVKIYLEVIKILIRLIEKNSSKEDERELEEELKELERELEELQKKLEEIRKELQEIEG
Consider B7, for which the binding result with DHT09 chain C is recorded as “binds”.

As for QKEAIKVYLELLEVHSRVLKALIEQIKLFIELIKRK (designed binder) [DHT03_variant_ABC-2 chain B], the binding result in [2] is “binds”.

B8: DHT04 chain B (designed binder)
chain: DEELIIYIIELLLKDDELLLKSLEIILRIIQLQLTSKDKDDGTDKIKKLVDESKKILDDSERLAEELRKIEEKLK
Consider B8, for which, in the test with DHT04 chain C, the binding result is “binds”.

B9: DHT01 chain B (designed binder)
chain: SEQERREKAKEEVRELNEEFKEAEKRFRKLQEETKKALEEVEELNQRFEEALEEVERIKRRQK
On to B9, for which, in the test with DHT01 chain C, the binding result was “binds”.

B10: DHT01-4arm-01 chain B (designed binder)
chain: SEQERREKAKEEVRELNEEFKEAEKRFRKLQEETKKALEEVEELNQRFQEALTEVAAKKLALEISRVIKTLKESGSSYEEIAEIVARIVAEIVEALKRSGASEKDIATIVAAIISAVIQTLKESGSSYEVIAEIVARIVAEIVEALKRSGTSEDEIAEIVARVISEVIRTLKESGSSYEVIKEIVQRIVEEIVEALKRSGTSEDEINEIVRRVKSEVERTLKESGSS
notes: Strep-tag II was added to the N-terminus of chain B of DHT01 arms
For the molecule B10, the binding result with DHT01-4arm-01 chain C was “binds”.
